Earlier results on one substance are cited in article PMC4676407.

The data set addresses Akt kinase domain kinase domain (Homo sapiens) (UniProt P31749).

By Kd is commonly meant the concentration at which binding is half-saturated. In the case of “Akt C-terminal peptide C-terminus (from UniProt P31749)”, the Kd is > 5 mM.
